Experimental data from patent publication US20220409535A1, “BIOLOGICAL AGENT-EXOSOME COMPOSITIONS AND USES THEREOF” (The University of North Carolina at Chapel Hill, priority 2016, published 2022).

Columns and labels:
hCMEC/D3 cells = assay: Flow cytometry of cell uptake of Mϕ exosomes and endocytosis markers; type: cell-based, human; details: for effect on uptake of Mϕ exosomes: CM-DiI labeled exosomes, 4 h; for effect on uptake of respective endocytosis marker: sucrose of transferrin, nystatin of CTB, EIPA of dextran (70 kDa)
Procedure: Flow Cytometry of Cell Uptake. hCMEC/D3 cells were grown in 24-well plates at […] for 4-5 days to reach confluence. Exosomes were labeled by adding CM-DiI dyes (2 μg/ml, Life Technologies) to the medium before the first […] pelleting step. In the uptake mechanism studies, the cells were pretreated with endocytosis inhibitors, carbohydrates or EGTA for 0.5 h, and then co-treated with CM-DiI labeled exosomes (0.6×10^10 exosomes/ml) for 4 h. The inhibition of endocytosis markers uptake was studied similarly. The endocytosis markers used were Alexa Fluor 488-Transferrin (10 μg/ml, Life technologies) for clathrin mediated endocytosis, Alexa Fluor 488-CTB (5 μg/ml, Life technologies) for caveolae mediated endocytosis, and FITC-Dextran (70 kDa, Sigma) (10 mg/ml) for macropinocytosis. The antibody block assays were done by co-incubating exosomes with antibodies or isotope controls at 100 μg/ml for 4 h. The cells were washed trice by PBS, detached by 0.25% trypsin/EDTA, collected by centrifugation at 100 g for 10 min, fixed with 4% paraformaldehyde for 10 min, and then resuspended in 0.35 ml PBS. Viable singlets were gated based on forward scatter and side scatter. 5,000-10,000 viable singlets were recorded for each sample on Becton Dickinson LSRII (BD Biosciences) using 488 nm and 532 nm lasers. Unless otherwise noted in figure legend, data are not normalized and reported as mean fluorescence±SD of 3 replicate wells.

ICAM-1 = ICAM-1 expression in hCMEC/D3 cells by western blot; type: cell-based, human
Procedure: Protein expression was determined by western blot using β-actin as loading control.

[1] = PK and distribution in healthy CD-1 mice; type: in vivo, mouse; details: jugular vein
Procedure: Iodine Labeling. Exosomes and proteins were labeled with iodine by chloramine-T method (Yi et al., J. Controlled Release 191:34 (2014)). Briefly, exosomes or proteins were mixed with 1 mCi of Na^125I or Na^131I (Perkin Elmer) and 10 μg of chloramine-T in phosphate buffer (0.25 M, pH 7.5) for 60 s. Labeled exosomes and proteins were purified by Illustra Nap-5 columns (Life technologies) and collected in tubes pretreated with 1% BSA in PBS to prevent nonspecific adsorption. The iodine association (iodine in labeled sample/total iodine) was determined by trichloroacetic acid precipitation method (Yi et al., J. Controlled Release 191:34 (2014)). Briefly, 1 μl of purified samples was mixed with 0.5 ml of 1% BSA in PBS and 0.5 ml of 30% TCA, and then centrifuged at 5400 g for 10 min. The resulting pellet and supernatant were counted on r-counter (PerkinElmer). The iodine association was calculated as the percentage of pellet radioactivity to total radioactivity.
(§1) Animal Procedure. Mice were anesthetized with 40% urethane (4 g/kg) by intraperitoneal injection. Iodine labeled substances (4×10^5 cpm) were injected to the right jugular vein. At each time point, blood was collected from the left carotid artery, allowed to clot and then centrifuged at 5400 g for 10 min to collect serum. The whole brain and peripheral organs were removed and weighed immediately after blood sampling. The radioactivity of serum and tissues were counted and normalized to injected dose (ID) by volume (ml) or weight (g) (% ID/ml or % ID/g). An injection check representing ID was also counted (n=3).
(§2) PK data analysis. The noncompartmental PK parameters Vss (ml), Cl (ml/min), MRTlast and MRTinf (h) were estimated using Phoenix® WinNonlin® 6.3 (Pharsight). The Ki (slope) and Vi (y-intercept) were calculated from the linear portion of multiple-time regression analysis (Price et al., J. Pharmacol. Exper. Ther. 333:253 (2010); Patlak et al., J. Cerebral Blood Flow Metab. 3:1 (1983); Patlak et al., J. Cerebral Blood Flow Metab. 5:584 (1985)). Brain/serum ratio (Am/Cpt, ml/g) of co-injected BSA was used to correct for the vascular space or leakage (Banks et al, Brain Behav. Immun. 2010, 24:102 (2010)), and subtracted from that of tested substance to get the delta brain/serum ratio. The delta brain/serum ratio was plotted against exposure time following equation

[2] = Shinoda et al.; cited from earlier work
[3] = Brain delivery of BDNF and Mϕ exosomes complex; type: in vivo, mouse; details: brain-inflamed mice, 10 min
Procedure: as §1
as §2, with “The delta brain/serum ratio was plotted against exposure time following equation” left out
We further determined if Mϕ exosomes would ferry BDNF to the brain. […]

[4] = Patterson et al.; cited from earlier work
[5] = Size of catalase exosomal formulations by DLS and NTA; type: physicochemical; details: DLS
Procedure: Characterization of different exoCAT formulations by (Dynamic Light Scattering) DLS, (Atomic Force Microscopy) AFM, Nanoparticle Tracking Analysis (NTA), and Hyperspectral microscopy: The effective hydrodynamic diameter of empty exosomes, or exosomes loaded with catalase was measured by DLS using the ZetaPlus' Zeta Potential Analyzer (Brookhaven Instruments, […]., USA) equipped with a 35 mW solid state laser (658 nm laser) as described in (Bronich et al., J. Amer. Chem. Soc. 122:8339 (2000); Vinogradov et al., Colloids Surfaces B-Biointerfaces 16:291 (1999)). The size, distribution, and number of particles for various exosomal formulations were also examined by NTA. For this purpose, exoCAT formulations were prepared at concentration 0.01 mg/mL, and evaluated using NanoSight 500, Version 2.2 (Wiltshire, United Kingdom). The morphology of exoCAT aggregates was investigated by AFM. Different exoCAT formulations were prepared in 50 mM phosphate buffer, pH 7.4 at total protein 10 μg/mL. A drop of the sample was placed on a glass slide, and dried under an argon flow. The AFM imaging was operated as described earlier (Zhao et al., Nanomedicine (Lond) 6:25 (2011)).

[6] = Preservation of catalase enzymatic activity and stability of exoCAT; type: physicochemical; details: sonication conditions
Procedure: Enzymatic activity of catalase loaded into exosomes: The loading efficiency for different exoCAT formulations was assessed by catalase enzymatic activity using hydrogen peroxide decomposition assay (Zhao et al., Nanomedicine (Lond) 6:25 (2011)). For this purpose, different exoCAT formulations were incubated with pronase (0.1-0.2 mg/mL) for 3 hours at 37° C. Following the incubation, the aliquots were subjected for catalytic activity assessment as described above. The same assay was used to examine the preservation of catalase enzymatic activity in exosomes against proteases degradation. Stability of catalase was expressed in the residual activity vs. initial activity of catalase.

PC12 cells = assay: Cell viability (MTT) of PC12 cells exposed to 6-OHDA; type: cell-based, rat
Procedure: Cell viability assay: The protection of PC12 cell by exoCAT prepared by sonication was assessed by MTT assay. For this purpose, PC12 cells (1×10^5 cells/mL) were seeded into a 96-well plate and allowed to attach overnight. Then, the cells were exposed to 200 μM 6-OHDA and different exoCAT formulations, or catalase alone, or empty exosomes for four hours. Following the incubation, the cells were washed 3 times with ice-cold PBS, and incubated with the corresponding exoCAT formulations, or catalase alone, or empty exosomes for another 24 hours. Following the treatment, 20 μL MTT (5 mg/mL) was added into each well. After 3 hours of incubation at 37° C., the medium containing MTT was removed; and 100 μL DMSO was added into each well to dissolve the purple MTT formazan. Absorbances were read at λ=570 nm by a microplate reader, and cell viability was expressed as a percentage of viable cells in the treated groups compared to the untreated control group.

[7] = calculated from the molecular mass of the enzyme; cited from earlier work
6-OHDA-intoxicated mice = assay: Immunohistochemical and stereological analyses in 6-OHDA PD mouse model; details: i.n.
Procedure: For the detection of microglia activation, tissue sections were incubated with primary monoclonal rat anti-mouse anti-CD11b antibodies (1:500 dilution), and secondary biotinylated goat anti-rat antibodies (Vector Laboratories, Burlingame, Calif., 1:200 dilution). […] In addition, levels of astrocytosis were assessed in the ventral midbrain region by fluorescent analysis of glial fibrillary acidic protein (GFAP) expression. For the GFAP staining, tissue sections were permeabilized with 0.01% Triton X-100 in TBS for 30 minutes and blocked for 1 hour with 10% normal goat serum (NGS, Vector Laboratories Inc., Burlingame, Calif.), then incubated with rabbit anti-GFAP primary polyclonal antibodies ab7260 (AbCam, Cambridge, Mass.) 1:100 dilution for 16 hours at 4° C. […] Immunoreactivity was evaluated by fluorescent analysis using confocal microscope Zeiss 510 Meta Confocal Laser Scanning Microscope (Jena, Germany), and ImageJ software (NIH, Bethesda, Mass., USA).

N[C@H]1C(O)O[C@H](CO)[C@@H](O)[C@@H]1O (stereo partly drawn) [glucosamine]
effect on uptake of Mϕ exosomes (hCMEC/D3 cells): inhibited the uptake at lower concentrations
ICAM-1 expression (ICAM-1): did not inhibit the expression of ICAM-1

^131I-BSA: 131I-labeled bovine serum albumin, co-injected vascular marker
Cl [1]: 0.0039 mL/min
MRTinf [1]: 6.10 h
MRTlast [1]: 0.94 h
Vss [1]: 1.44 mL
Cl, previously published data [2]: 0.0035 mL/min
Vss, previously published data [2]: 1.5 mL

CCN(c1nc(N)c(C(=O)N=C(N)N)nc1Cl)C(C)C [EIPA, 5-(N-Ethyl-N-isopropyl) amiloride]
effect on uptake of Mϕ exosomes (hCMEC/D3 cells): significantly decreased the uptake of Mϕ exosomes
effect on uptake of respective endocytosis marker (hCMEC/D3 cells): diminished uptake of a respective endocytosis marker

OC[C@H]1O[C@@](CO)(O[C@H]2O[C@H](CO)[C@@H](O)[C@H](O)[C@H]2O)[C@@H](O)[C@@H]1O [sucrose]
effect on uptake of Mϕ exosomes (hCMEC/D3 cells): significantly decreased the uptake of Mϕ exosomes
effect on uptake of respective endocytosis marker (hCMEC/D3 cells): diminished uptake of a respective endocytosis marker

C[C@@H]1[C@H](O)[C@@H](C)/C=C/C=C/CC/C=C/C=C/C=C/C=C/C(O[C@H]2O[C@H](C)[C@@H](O)[C@H](N)[C@@H]2O)CC2O[C@](O)(CC(O)C(O)CCC(O)CC(O)CC(O)CC(=O)O[C@H]1C)CC(O)C2C(=O)O (stereo partly drawn) [nystatin]
effect on uptake of Mϕ exosomes (hCMEC/D3 cells): significantly decreased the uptake of Mϕ exosomes
effect on uptake of respective endocytosis marker (hCMEC/D3 cells): diminished uptake of a respective endocytosis marker

O=C(O)CN(CCOCCOCCN(CC(=O)O)CC(=O)O)CC(=O)O [EGTA, ethylene glycol-bis(2-aminoethylether)-N, N, N′, N′-tetraacetic acid]
effect on uptake of Mϕ exosomes (hCMEC/D3 cells): decreased

B1: BDNF: brain derived neurotrophic factor (protein, UniProt P23560 19-247, looked up)
Neurotrophic factor BDNF …: APMKEANIRGQGGLAYPGVRTHGTLESVNGPKAGSRGLTSLADTFEHVIEELLDEDQKVRPNEENNKDADLYTSRVMLSSQVPLEPPLLFLLEEYKNYLDAANMSMRVRRHSDPARRGELSVCDSISEWVTAADKKTAVDMSGGTVTVLEKVPVSKGQLKQYFYETKCNPMGYTKEGCRGIDKRHWNSQCRTTQSYVRALTMDSKKRIGWRFIRIDTSCVCTLTIKRGR
brain accumulation of BDNF [3]: the difference was not significant
isoelectric point [4]: 9.99

B2: Catalase alone: Catalase from bovine liver (protein, UniProt P00432 2-527, looked up)
Catalase: ADNRDPASDQMKHWKEQRAAQKPDVLTTGGGNPVGDKLNSLTVGPRGPLLVQDVVFTDEMAHFDRERIPERVVHAKGAGAFGYFEVTHDITRYSKAKVFEHIGKRTPIAVRFSTVAGESGSADTVRDPRGFAVKFYTEDGNWDLVGNNTPIFFIRDALLFPSFIHSQKRNPQTHLKDPDMVWDFWSLRPESLHQVSFLFSDRGIPDGHRHMNGYGSHTFKLVNANGEAVYCKFHYKTDQGIKNLSVEDAARLAHEDPDYGLRDLFNAIATGNYPSWTLYIQVMTFSEAEIFPFNPFDLTKVWPHGDYPLIPVGKLVLNRNPVNYFAEVEQLAFDPSNMPPGIEPSPDKMLQGRLFAYPDTHRHRLGPNYLQIPVNCPYRARVANYQRDGPMCMMDNQGGAPNYYPNSFSAPEHQPSALEHRTHFSGDVQRFNSANDDNVTQVRTFYLKVLNEEQRKRLCENIAGHLKDAQLFIQKKAVKNFSDVHPEYGSRIQALLDKYNEEKPKNAVHTYVQHGSHLSAREKANL
Deff (nm) [5]: 9.5 nm
PdI [5]: 0.10
Deff (nm) ([5]; listed as naked catalase): 9.5 nm
catalase enzymatic activity upon sonication [6]: 14%
neuroprotective activity (neuronal survival, MTT) (PC12 cells): did not protect PC12 cells
theoretical diameter of a single protein globule [7]: 10.5 nm
anti-inflammatory and neuroprotective effect (6-OHDA-intoxicated mice): not effective in decreasing inflammation or providing neuroprotection
